Data on five molecules can be found in publication PMC8254758 (Structure (London, England : 1993), 2021).

Where a chain is given by its changes, count along the chain named. In names and notes the source's numbering stands.

Assay [1] concerns the target rat NLGN2(+A) extracellular domain (Val43-His612, with splice insert SSA) (rat) (UniProt Q62888). The assay is described as follows: SPR.
Assay [2] addresses full-length SPARC (SPARC_C1) and the SPARC FS-EC domains (SPARC_C2). In words: fluorescence polarisation.
Assay [3] addresses T1, rat NLGN2(+A) extracellular domain (Val43-His612, with splice insert SSA) (rat, UniProt Q62888-1 43-612). In words: fluorescence polarisation.
In assay [4] the target is T1, rat NLGN2(+A) extracellular domain …. In words: SPR.

T1 sequence (Q62888 43-612): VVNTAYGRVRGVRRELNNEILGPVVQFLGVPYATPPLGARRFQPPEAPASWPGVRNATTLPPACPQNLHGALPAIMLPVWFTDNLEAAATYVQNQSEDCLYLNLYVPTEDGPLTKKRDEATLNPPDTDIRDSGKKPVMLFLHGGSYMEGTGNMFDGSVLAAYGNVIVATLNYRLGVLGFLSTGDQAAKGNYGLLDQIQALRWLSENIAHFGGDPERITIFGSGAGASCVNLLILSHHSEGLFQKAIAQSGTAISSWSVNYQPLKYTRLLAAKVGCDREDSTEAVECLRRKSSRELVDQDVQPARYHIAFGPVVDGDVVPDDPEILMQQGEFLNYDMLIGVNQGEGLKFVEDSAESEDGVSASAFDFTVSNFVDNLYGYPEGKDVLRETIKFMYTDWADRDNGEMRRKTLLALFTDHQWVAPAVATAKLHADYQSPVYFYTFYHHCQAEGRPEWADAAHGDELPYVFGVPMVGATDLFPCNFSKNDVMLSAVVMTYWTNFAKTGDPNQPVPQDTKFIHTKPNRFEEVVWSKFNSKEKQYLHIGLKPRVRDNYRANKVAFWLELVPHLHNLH
rat NLGN2(+A) extracellular domain (Val43-His612, with splice insert SSA) (rat), sequence (Q62888 43-612): as above

In the case of “bovine neurexin 1α L1L6 (M1-S1339, without splice inserts) (domain or fragment)”, the Kd in assay [1] amounted to 3.8 nM.

In the case of “rat NLGN2(+A) extracellular domain (Val43-His612, with splice insert SSA) (from UniProt Q62888-1 43-612) (domain or fragment)”, in assay [2], the Kd lay in the range of 37 to 96 nM.

B1: human MDGA1 Ig1-Ig2 (MDGA1_C8, Y22-T237) (domain or fragment, UniProt Q8NFP4-1 22-237, looked up)
chain: YAPAQAQIVHAGQACVVKEDNISERVYTIREGDTLMLQCLVTGHPRPQVRWTKTAGSASDKFQETSVFNETLRIERIARTQGGRYYCKAENGVGVPAIKSIRVDVQYLDEPMLTVHQTVSDVRGNFYQEKTVFLRCTVNSNPPARFIWKRGSDTLSHSQDNGVDIYEPLYTQGETKVLKLKNLRPQDYASYTCQVSVRNVCGIPDKAITFRLTNTT
As for B1, the binding result in assay [3] is “binds”.

B2: MDGA1_C8 Mut4 (MDGA1 Ig1-Ig2 R105A, Y107A, R123A, F154A, R156A, Y187A) (domain or fragment, human, UniProt Q8NFP4-1 22-237, looked up)
chain: B1 chain with R84A, Y86A, R102A, F133A, R135A, Y166A
Turning to B2, in assay [3], the binding result was “binds”.

B3: hevin_C4 (L302-F664) (domain or fragment, human, UniProt Q14515 302-664, looked up)
chain: LEAISNHKETEEKTVSEALLMEPTDDGNTTPRNHGVDDDGDDDGDDGGTDGPRHSASDDYFIPSQAFLEAERAQSIAYHLKIEEQREKVHENENIGTTEPGEHQEAKKAENSSNEEETSSEGNMRVHAVDSCMSFQCKRGHICKADQQGKPHCVCQDPVTCPPTKPLDQVCGTDNQTYASSCHLFATKCRLEGTKKGHQLQLDYFGACKSIPTCTDFEVIQFPLRMRDWLKNILMQLYEANSEHAGYLNEKQRNKVKKIYLDEKRLLAGDHPIDLLLRDFKKNYHMYVYPVHWQFSELDQHPMDRVLTHSELAPLRASLVPMEHCITRFFEECDPNKDKHITLKEWGHCFGIKEEDIDENLLF
For the molecule B3, the binding result in assay [4] is recorded as “binds”.
